Measurements from patent publication US20260022170A1 (ADAPTAM THERAPEUTICS S L, published 2026).

T1: Siglec-10 (UniProt Q96LC7 17-546, limits assumed)
T1 sequence (looked up): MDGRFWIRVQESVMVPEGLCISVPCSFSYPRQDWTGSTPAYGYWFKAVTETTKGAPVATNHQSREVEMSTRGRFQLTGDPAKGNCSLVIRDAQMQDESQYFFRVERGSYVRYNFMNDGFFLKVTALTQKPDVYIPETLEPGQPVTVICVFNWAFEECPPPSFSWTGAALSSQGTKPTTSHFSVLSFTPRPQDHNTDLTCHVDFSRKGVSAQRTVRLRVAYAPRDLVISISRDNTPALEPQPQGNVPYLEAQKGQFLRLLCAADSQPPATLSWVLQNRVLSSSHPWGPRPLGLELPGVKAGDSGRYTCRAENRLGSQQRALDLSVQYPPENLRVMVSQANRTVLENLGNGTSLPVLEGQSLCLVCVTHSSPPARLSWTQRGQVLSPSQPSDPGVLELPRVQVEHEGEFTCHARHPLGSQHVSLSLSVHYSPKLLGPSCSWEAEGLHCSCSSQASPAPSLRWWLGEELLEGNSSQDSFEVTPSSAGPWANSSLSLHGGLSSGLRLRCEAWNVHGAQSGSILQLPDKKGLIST


Columns and labels:
[1] = biological target: T2, recombinant Siglec-9 (SinoBiological, 30109-H03H) (human, UniProt Q9Y336 18-348); assay: ELISA on coated ectodomains
T2 construct: also called ectodomain of Siglec-9; recombinant human Siglec-9 protein
T2 sequence (Q9Y336 18-348 limits assumed): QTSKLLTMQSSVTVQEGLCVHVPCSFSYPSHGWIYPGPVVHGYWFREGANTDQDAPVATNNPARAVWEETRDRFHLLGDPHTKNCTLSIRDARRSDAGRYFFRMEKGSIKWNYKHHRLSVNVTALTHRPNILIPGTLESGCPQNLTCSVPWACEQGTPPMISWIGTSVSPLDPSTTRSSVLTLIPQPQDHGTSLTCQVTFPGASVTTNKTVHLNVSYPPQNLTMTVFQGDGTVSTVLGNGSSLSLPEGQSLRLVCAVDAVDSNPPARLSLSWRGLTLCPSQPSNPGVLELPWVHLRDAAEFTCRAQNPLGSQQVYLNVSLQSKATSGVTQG
Procedure: (§1) Next, the binding of anti-Siglec-9 monoclonal antibodies ED2D5, C1B613, BC3G5, and DH1A11 to the ectodomains of Siglec-9, Siglec-7, and a control was assessed using ELISA. An anti-Siglec-7 antibody control and isotype control were utilized. […] Antibody clones huCB6B3, mAbA, 68D4, and Tf73 also produced similar EC50 values.
(§2) To perform the ELISA experiments, 96-well plates were coated with recombinant Siglec-9 (SinoBiological, 30109-H03H) (100 μL) at 2 μg/mL in carbonate/bicarbonate buffer pH 9.6 overnight at 4° C., and washed with 250 μL of PBST (PBS, 0.1% Tween-20). Plates were blocked with blocking buffer (3% BSA in PBS) for 1 hour at room temperature, washed, and 100 μL of serially diluted anti-Siglec-9 antibodies-test antibodies, benchmarks, or control-starting at 66.64 nM (4-fold serial dilutions in PBST with 1% w/v non-fat milk), were added for 2 hours at RT. The plates were washed and incubated at room temperature with an anti-mouse IgG HRP detection antibody (1:5000, 1-hour, Anti-mouse IgG-HRP), followed by three washes of 250 μL of PBST, and two more with 400 μL of PBS, before the addition of 100 μL of TMB (Thermo Scientific) for 2-6 minutes. The reaction was stopped with 50 μL of Stop Solution (Thermo Scientific). The OD was measured at 450 nm in a multimode plate reader (Victor Nivo, PerkinElmer). OD values were plotted against antibody concentration, and data were analyzed using GraphPad Prism software.

[2] = biological target: T3, ectodomain of Siglec-7 (UniProt Q9Y286 19-353, limits assumed); assay: ELISA on coated ectodomains
T3 construct: extracellular domain
T3 sequence (Q9Y286 19-353 limits assumed): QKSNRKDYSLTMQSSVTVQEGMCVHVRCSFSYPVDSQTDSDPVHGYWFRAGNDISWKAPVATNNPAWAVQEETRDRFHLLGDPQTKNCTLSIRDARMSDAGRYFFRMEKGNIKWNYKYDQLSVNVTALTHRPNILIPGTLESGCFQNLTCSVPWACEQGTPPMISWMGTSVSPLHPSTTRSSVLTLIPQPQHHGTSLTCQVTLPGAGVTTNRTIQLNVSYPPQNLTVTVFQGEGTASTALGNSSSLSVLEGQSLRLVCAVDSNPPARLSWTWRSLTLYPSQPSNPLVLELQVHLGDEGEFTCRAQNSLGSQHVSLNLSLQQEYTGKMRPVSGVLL
Procedure: as §1, §2

[3] = biological target: T4, human Siglec-9 protein (recombinant; construct not stated) (human, UniProt Q9Y336 18-344, limits assumed); assay: ELISA on recombinant Siglec-9
T4 construct: also called recombinant Siglec-9
T4 sequence (Q9Y336 18-344 limits assumed): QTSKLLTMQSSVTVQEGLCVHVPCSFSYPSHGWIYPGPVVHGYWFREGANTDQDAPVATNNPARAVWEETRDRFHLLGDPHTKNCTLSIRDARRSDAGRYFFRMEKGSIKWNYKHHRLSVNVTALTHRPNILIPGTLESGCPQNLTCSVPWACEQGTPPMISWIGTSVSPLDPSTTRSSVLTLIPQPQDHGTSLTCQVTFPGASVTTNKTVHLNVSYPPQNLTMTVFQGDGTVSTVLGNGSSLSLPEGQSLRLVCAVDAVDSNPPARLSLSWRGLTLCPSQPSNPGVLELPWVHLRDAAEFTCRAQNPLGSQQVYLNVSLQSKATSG
Procedure: as §1
as §2, with “The reaction was stopped with 50 μL of Stop Solution (Thermo Scientific).” left out

[4] = biological target: Siglec-3 (UniProt P20138 18-259, limits assumed); assay: BLI, antibody in Fab format
Sequence of Siglec-3 (P20138 18-259 limits assumed): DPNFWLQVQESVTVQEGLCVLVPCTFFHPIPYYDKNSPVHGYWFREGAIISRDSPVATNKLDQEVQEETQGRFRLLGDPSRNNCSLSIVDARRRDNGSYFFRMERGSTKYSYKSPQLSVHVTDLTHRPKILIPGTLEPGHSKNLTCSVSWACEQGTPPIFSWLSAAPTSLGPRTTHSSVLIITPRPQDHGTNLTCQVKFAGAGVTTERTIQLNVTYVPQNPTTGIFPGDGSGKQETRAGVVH
Procedure: (§3) BLI experiments were performed to assess binding of the generated anti-Siglec-9 antibodies to Siglec family members Siglec-3, Siglec-6, Siglec-7, Siglec-8, Siglec-9, and Siglec-10. The antibodies were tested in Fab format at 250 nM.

[5] = biological target: Siglec-6 (UniProt O43699 27-347, limits assumed); assay: BLI, antibody in Fab format
Sequence of Siglec-6 (O43699 27-347 limits assumed): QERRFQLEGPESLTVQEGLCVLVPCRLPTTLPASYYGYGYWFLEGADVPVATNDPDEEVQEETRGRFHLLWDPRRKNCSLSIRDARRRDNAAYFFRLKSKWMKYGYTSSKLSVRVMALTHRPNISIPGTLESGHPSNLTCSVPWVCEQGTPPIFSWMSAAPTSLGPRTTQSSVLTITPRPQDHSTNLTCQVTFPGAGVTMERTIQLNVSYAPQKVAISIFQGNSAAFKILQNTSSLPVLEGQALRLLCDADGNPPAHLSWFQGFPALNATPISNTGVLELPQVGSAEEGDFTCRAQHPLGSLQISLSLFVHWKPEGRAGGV
Procedure: as §3

[6] = biological target: Siglec-7 (BLI) (UniProt Q9Y286 19-353, limits assumed); assay: BLI, antibody in Fab format
Sequence of Siglec-7 (BLI) (Q9Y286 19-353 limits assumed): as the sequence (Q9Y286 19-353 limits assumed) above
Procedure: as §3

[7] = biological target: Siglec-8 (UniProt Q9NYZ4 17-363, limits assumed); assay: BLI, antibody in Fab format
Sequence of Siglec-8 (Q9NYZ4 17-363 limits assumed): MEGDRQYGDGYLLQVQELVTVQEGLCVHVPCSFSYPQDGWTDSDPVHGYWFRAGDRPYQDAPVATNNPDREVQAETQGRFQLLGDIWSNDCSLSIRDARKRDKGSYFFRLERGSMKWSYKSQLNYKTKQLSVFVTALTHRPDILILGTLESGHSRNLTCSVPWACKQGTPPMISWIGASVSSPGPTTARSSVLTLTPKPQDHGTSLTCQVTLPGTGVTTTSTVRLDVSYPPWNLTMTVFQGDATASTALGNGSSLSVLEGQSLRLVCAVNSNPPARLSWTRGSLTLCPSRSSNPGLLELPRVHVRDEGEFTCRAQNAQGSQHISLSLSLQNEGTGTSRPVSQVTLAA
Procedure: as §3

[8] = biological target: T1, Siglec-10; assay: BLI, antibody in Fab format
Procedure: as §3

[9] = biological target: T4, human Siglec-9 protein (recombinant; …); assay: ELISA, human Siglec-9 protein coated at 2 µg/mL, antibody titrated 0.4 pM to 400 nM
Procedure: The binding of the different IgG CB6B3 antibodies was analyzed via ELISA using human Siglec-9 protein as immobilized antigen (2 μg/mL). The different antibodies were titrated from 0.4 pM to 400 nM (FIG. 9). Human Siglec-9 protein was diluted in PBS pH 7.4 and coated overnight at 4° C. Remaining binding sites were blocked with PBS, 2% skimmed milk power (MPBS) for 2 hours. Bound murine IgG CB6B3 antibody was detected with an HRP-conjugated anti-mouse Fc secondary antibody (Sigma Aldrich A554; 1:5,000 dilution). All antibodies were diluted in MPBS. Incubation times were 1 hour each. TMB/H2O2 was used as substrate. […] Thus, the humanised antibodies retained antigen specificity and bound with similar potency to purified antigen in ELISA.

[10] = biological target: T4, human Siglec-9 protein (recombinant; …); assay: BLI, antibody in Fab format at 250 nM
Procedure: as §3

binding result [1]	binding result [2]	binding result [4]	binding result [5]	binding result [6]	binding result [7]	binding result [8]	Binder	also measured
binds	no binding	–	–	–	–	–	anti-Siglec-9 monoclonal antibody clone CB6B3 (parental mouse antibody) (antibody, V domains shown, Mouse hybridoma IgG; also called moIgG CB6B3; mouse IgG CB6B3) VH: EVQLQQSGAEVVRPGALVKLSCKAAGFNIKDYFIHWVKQRPEQGLEWIGLIDPENDNTMYDPRFQVKASLTADTSSNTAYLQLSRLTSEDAAVYYCASTVVARSFDYWGQGTTLTVSS VL: SIVMTQTPKFLLVSAGDRVTITCKASQSVSNDVAWYQQKSGQSPKLLIYYTSNRYTGVPDRFTGSGYGTDFTFTISTVQAEDLAVYFCQQDFRSPFTFGAGTKLELK	binding result [3]: binds
–	–	no binding (tested: 250 nM)	no binding (tested: 250 nM)	no binding (tested: 250 nM)	no binding (tested: 250 nM)	no binding (tested: 250 nM)	CB6B3 in Fab format (Fab, V domains shown, Tested in Fab format in BLI; printed as 'C1B613', read as CB6B3; also called C1B613) VH: EVQLQQSGAEVVRPGALVKLSCKAAGFNIKDYFIHWVKQRPEQGLEWIGLIDPENDNTMYDPRFQVKASLTADTSSNTAYLQLSRLTSEDAAVYYCASTVVARSFDYWGQGTTLTVSS VL: SIVMTQTPKFLLVSAGDRVTITCKASQSVSNDVAWYQQKSGQSPKLLIYYTSNRYTGVPDRFTGSGYGTDFTFTISTVQAEDLAVYFCQQDFRSPFTFGAGTKLELK	–
–	–	–	–	–	–	–	chimeric IgG1 CB6B3 (cIgG CB6B3) (antibody, V domains shown, Chimeric IgG1 of CB6B3 made in HEK293-6E cells; also called cIgG CB6Bb) VH: EVQLQQSGAEVVRPGALVKLSCKAAGFNIKDYFIHWVKQRPEQGLEWIGLIDPENDNTMYDPRFQVKASLTADTSSNTAYLQLSRLTSEDAAVYYCASTVVARSFDYWGQGTTLTVSS VL: SIVMTQTPKFLLVSAGDRVTITCKASQSVSNDVAWYQQKSGQSPKLLIYYTSNRYTGVPDRFTGSGYGTDFTFTISTVQAEDLAVYFCQQDFRSPFTFGAGTKLELK	binding result [9]: binds
–	–	no binding (tested: 250 nM)	no binding (tested: 250 nM)	no binding (tested: 250 nM)	no binding (tested: 250 nM)	no binding (tested: 250 nM)	ED2D5 in Fab format (Fab, V domains shown, Tested in Fab format in BLI) VH: EVQLVESGGGLVKPGGSLKLSCAASGFTFSDYYMYWVRQTPEKRLEWVATISDGGSDTYYPDNMKGRFTISRDNAKNNLYLQMSSLKSEDTAMYYCTRDPDYDDGRFAYWGQGTLVTVSA VL: DIVMTQSHKFMSTSVGDRVSITCKASQDVGTVVAWYQQKSGQSPKLLIYWSSTRHTGVPDRFTGSGSGTDFTLTISNVQSEDLADYFCQQYIDYPLSFGAGTKLELK	binding result [10]: binds
binds	no binding	–	–	–	–	–	anti-Siglec-9 monoclonal antibody clone ED2D5 (antibody, V domains shown, Mouse hybridoma monoclonal antibody) VH: EVQLVESGGGLVKPGGSLKLSCAASGFTFSDYYMYWVRQTPEKRLEWVATISDGGSDTYYPDNMKGRFTISRDNAKNNLYLQMSSLKSEDTAMYYCTRDPDYDDGRFAYWGQGTLVTVSA VL: DIVMTQSHKFMSTSVGDRVSITCKASQDVGTVVAWYQQKSGQSPKLLIYWSSTRHTGVPDRFTGSGSGTDFTLTISNVQSEDLADYFCQQYIDYPLSFGAGTKLELK	–
